The results in this text go back to paper PMC4786922, “Protein Delivery of an Artificial Transcription Factor Restores Widespread Ube3a Expression in an Angelman Syndrome Mouse Brain”.

The data set has as its target TAT-S1 (MBP-TAT-mCherry-HA-NLS-S1-KRAB) (artificial (designed)). The data set is described as follows: EMSA; EMSA: ZBA buffer (composition not given), 0.05% NP-40, 0.1 mg/ml BSA, 10% glycerol, 35-75 pM target, 1.5 h at room temperature; pH not given. The note with it: protein: recombinant, tags: N-terminal MBP, TAT(48-57), SV40 NLS, C-terminal KRAB, label: 5'-biotin on strand 1, blunt. On the technique in general: Mobility shift assays separate free from complexed probe on a gel.

B1: S1 target site EMSA probe (dsDNA)
DNA 1: CCTCTTCGCTATTACGCCAGCCATGCGTAGGGAGCCGCGGAACGTTCGATCGTACTCGAGTCAGGGTG
DNA 2: CACCCTGACTCGAGTACGATCGAACGTTCCGCGGCTCCCTACGCATGGCTGGCGTAATAGCGAAGAGG
For orientation: Kd means the equilibrium constant for the complex coming apart. With B1, the dissociation constant Kd was 8 ± 1.5 nM.
